Experimental data from publication doi:10.1101/313791 (bioRxiv, 2018).

B2: HDA19-EGFP (HDA19pro:HDA19-EGFP) (enzyme, Arabidopsis thaliana, UniProt O22446 1-501, looked up)
chain: MDTGGNSLASGPDGVKRKVCYFYDPEVGNYYYGQGHPMKPHRIRMTHALLAHYGLLQHMQVLKPFPARDRDLCRFHADDYVSFLRSITPETQQDQIRQLKRFNVGEDCPVFDGLYSFCQTYAGGSVGGSVKLNHGLCDIAINWAGGLHHAKKCEASGFCYVNDIVLAILELLKQHERVLYVDIDIHHGDGVEEAFYATDRVMTVSFHKFGDYFPGTGHIQDIGYGSGKYYSLNVPLDDGIDDESYHLLFKPIMGKVMEIFRPGAVVLQCGADSLSGDRLGCFNLSIKGHAECVKFMRSFNVPLLLLGGGGYTIRNVARCWCYETGVALGVEVEDKMPEHEYYEYFGPDYTLHVAPSNMENKNSRQMLEEIRNDLLHNLSKLQHAPSVPFQERPPDTETPEVDEDQEDGDKRWDPDSDMDVDDDRKPIPSRVKREAVEPDTKDKDGLKGIMERGKGCEVEVDESGSTKVTGVNPVGVEEASVKMEEEGTNKGGAEQAFPPKT

Legend:
[1] = target: B2; assay: fluorescence correlation spectroscopy
[2] = target: the molecule itself; assay: fluorescence correlation spectroscopy

B1: SCR-mCherry (SCRpro:SCR-mCherry) (natural protein, Arabidopsis thaliana, UniProt Q9M384 1-653, looked up)
chain: MAESGDFNGGQPPPHSPLRTTSSGSSSSNNRGPPPPPPPPLVMVRKRLASEMSSNPDYNNSSRPPRRVSHLLDSNYNTVTPQQPPSLTAAATVSSQPNPPLSVCGFSGLPVFPSDRGGRNVMMSVQPMDQDSSSSSASPTVWVDAIIRDLIHSSTSVSIPQLIQNVRDIIFPCNPNLGALLEYRLRSLMLLDPSSSSDPSPQTFEPLYQISNNPSPPQQQQQHQQQQQQHKPPPPPIQQQERENSSTDAPPQPETVTATVPAVQTNTAEALRERKEEIKRQKQDEEGLHLLTLLLQCAEAVSADNLEEANKLLLEISQLSTPYGTSAQRVAAYFSEAMSARLLNSCLGIYAALPSRWMPQTHSLKMVSAFQVFNGISPLVKFSHFTANQAIQEAFEKEDSVHIIDLDIMQGLQWPGLFHILASRPGGPPHVRLTGLGTSMEALQATGKRLSDFADKLGLPFEFCPLAEKVGNLDTERLNVRKREAVAVHWLQHSLYDVTGSDAHTLWLLQRLAPKVVTVVEQDLSHAGSFLGRFVEAIHYYSALFDSLGASYGEESEERHVVEQQLLSKEIRNVLAVGGPSRSGEVKFESWREKMQQCGFKGISLAGNAATQATLLLGMFPSDGYTLVDDNGTLKLGWKDLSLLTASAWTPRS
- percent of the complex in a 1:1 ratio [1]: 98.8%
- stoichiometry N [1]: 1 ratio (1:1)

Binder: B2
- stoichiometry N [2]: 2
